In patent publication EP3222635A1:
Values belong to the molecule of their own block, whether it stands above or below them.

Experiments:
[1] = target: Soluble human P-selectin (human) (UniProt P16109); assay: SPR (SensiQ), antibody captured on protein G, soluble human P-selectin 100nM-1.56nM as analyte
[2] = target: Soluble human P-selectin (human) (UniProt P16109); assay: SPR (SensiQ), reference G1

Sequence of UniProt P16109 (P16109 42-771 limits assumed): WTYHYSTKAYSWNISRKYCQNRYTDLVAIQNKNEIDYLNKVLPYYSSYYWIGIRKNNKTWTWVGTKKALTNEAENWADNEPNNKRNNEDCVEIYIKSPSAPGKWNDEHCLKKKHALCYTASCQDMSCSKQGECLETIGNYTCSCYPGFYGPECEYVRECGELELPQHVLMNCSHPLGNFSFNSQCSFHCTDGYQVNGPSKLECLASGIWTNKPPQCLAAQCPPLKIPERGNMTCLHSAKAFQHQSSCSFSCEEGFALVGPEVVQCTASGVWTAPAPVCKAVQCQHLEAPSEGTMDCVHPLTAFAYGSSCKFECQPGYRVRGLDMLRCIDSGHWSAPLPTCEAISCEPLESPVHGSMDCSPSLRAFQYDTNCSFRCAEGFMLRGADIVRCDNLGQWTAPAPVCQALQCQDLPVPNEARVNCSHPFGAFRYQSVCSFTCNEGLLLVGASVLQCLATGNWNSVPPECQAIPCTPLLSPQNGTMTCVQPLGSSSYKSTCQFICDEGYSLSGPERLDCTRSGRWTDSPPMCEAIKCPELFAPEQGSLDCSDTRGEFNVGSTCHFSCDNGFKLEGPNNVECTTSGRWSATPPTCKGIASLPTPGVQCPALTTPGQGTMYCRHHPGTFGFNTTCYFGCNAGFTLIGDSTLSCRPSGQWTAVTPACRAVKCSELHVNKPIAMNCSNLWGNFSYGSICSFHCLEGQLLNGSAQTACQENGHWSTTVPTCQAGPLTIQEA

Kd [1]: 8.94 nM
koff [1]: 0.056 s⁻¹
kon [1]: 6.3e+06 M⁻¹ s⁻¹
Molecule: G1 mouse monoclonal anti-P-selectin antibody

Kd [1]: 5.89 nM
koff [1]: 0.0131 s⁻¹
kon [1]: 2.22e+06 M⁻¹ s⁻¹
Ka (association constant) higher than G1 [2]: 64.7%
improvement in the binding affinity compared to G1 [2]: 34%
B1: hSel001 humanized IgG2 anti-P-selectin antibody (antibody, from another filing, V domains shown)
VH: QVQLVQSGAEVKKPGASVKVSCKVSGYTFTSYDINWVRQAPGKGLEWMGWIYPGDGSIKYNEKFKGRVTMTVDKSTDTAYMELSSLRSEDTAVYYCARRGEYGNYEGAMDYWGQGTLVTVSS
VL: DIQMTQSPSSLSASVGDRVTITCKASQSVDYDGHSYMNWYQQKPGKAPKLLIYAASNLESGVPSRFSGSGSGTDFTLTISSLQPEDFATYYCQQSDENPLTFGGGTKVEIKR
